The record followed here is patent US20090312277.

This data set has as its target p21/WAF1 (UniProt P38936).

Sequence of cathepsin L (chain, as listed by the source): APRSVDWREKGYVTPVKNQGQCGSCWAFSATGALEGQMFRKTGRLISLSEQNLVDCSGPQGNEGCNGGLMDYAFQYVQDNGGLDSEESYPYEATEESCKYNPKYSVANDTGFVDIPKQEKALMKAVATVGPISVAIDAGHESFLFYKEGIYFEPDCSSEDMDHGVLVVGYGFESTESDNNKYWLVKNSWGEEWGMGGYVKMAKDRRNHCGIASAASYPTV
Sequence of p21/WAF1 (P38936 whole entry): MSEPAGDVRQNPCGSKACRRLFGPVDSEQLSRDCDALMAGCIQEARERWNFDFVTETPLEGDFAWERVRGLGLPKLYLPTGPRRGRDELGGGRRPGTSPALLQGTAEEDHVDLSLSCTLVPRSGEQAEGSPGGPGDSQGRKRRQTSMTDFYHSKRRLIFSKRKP

On to cathepsin L, for which the cleavage in vitro result is “p2l/WAF1 is readily cleaved by cathepsin L in vitro”.
